Test results taken from publication PMC10620215.

Target: EcbAgaN (Escherichia coli long-B pAgo-associated nuclease), N-terminal 6xHis tag (Escherichia coli)
Test: SEC-MALS; EcbAgaN, already purified by SEC, loaded onto Superdex 200 10/300 GL in 20 mM Tris-HCl pH 7.5, 250 mM NaCl, 0.5 mL/min; BSA monomer as standard

“EcbAgaN (Escherichia coli long-B pAgo-associated nuclease), N-terminal 6xHis tag (enzyme)” gave a stoichiometry N of 2.
